From article PMC3947560

Target: ETV1 (ER81) 249-477 (UniProt P50549 249-477)
Test: EMSA

Sequence of ETV1 (ER81) 249-477 (P50549 249-477): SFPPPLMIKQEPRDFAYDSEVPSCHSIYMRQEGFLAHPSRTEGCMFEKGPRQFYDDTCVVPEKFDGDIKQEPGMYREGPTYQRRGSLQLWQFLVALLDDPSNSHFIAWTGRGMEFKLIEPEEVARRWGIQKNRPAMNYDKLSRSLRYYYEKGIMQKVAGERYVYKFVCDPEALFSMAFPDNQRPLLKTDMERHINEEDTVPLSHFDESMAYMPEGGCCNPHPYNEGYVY

B1: ETS8/9 (PSA enhancer) (dsDNA)
DNA 1: CTTTACAAACATCCTTGAAACAACAATCCAGAA
DNA 2: TTCTGGATTGTTGTTTCAAGGATGTTTGTAA
- binding result: binds
